Assay results from paper doi:10.1101/2020.04.09.034520.

Target: FKBP_C-term (FKBP fused at its C-terminal end to the C-terminal NanoLuc fragment N2)
Assay: split reporter

luminescence without rapamycin as percent of that with rapamycin: 3%
Substance: FRB_N-term (FRB fused at its C-terminal end to the N-terminal NanoLuc fragment N1)
